B1: 抗SARS-CoV-2 RBD VHH抗体 A15 (VHH, not shown: small tags and cut ends)
VHH: QVQLVESGGALVQPGGSLRLSCAASGFPVNRNTMHWYRQAPGKEREGVAGISSRGDWTYYEDSVKGRFTISRDDARNTVYLQMSSLKPEDTAVYYCAAVGVLSVSAFGWLYWGQGTQVTVGG
notes: also called A15
B2: 抗SARS-CoV-2 RBD VHH抗体 B02 (VHH, not shown: small tags and cut ends)
VHH: QVQLVESGGALVQPGGSLRLSCAASGFPVNRNTMHWFRQAPGKEREGVAGISSRGDWTYYEDSVKGRFTISRDDARNTVYLQMNSLKPEDTAVYYCAALLWNYGGVCWGQGTQVTVGG
notes: also called B02
B3: 抗SARS-CoV-2 RBD VHH抗体 B16 (VHH, not shown: small tags and cut ends)
VHH: QVQLVESGGALVQPGGSLRLSCAASGFPVNHNAVHWFRQAPGKEREGVAGISHLVHRTYYEDSVKGRFTISRDDARNTVYLQMNSLKPEDTAVYYCAAYLWLLGGVYWGQGTQVTVGG
notes: also called B16
B4: 抗SARS-CoV-2 RBD VHH抗体 B04 (VHH, not shown: small tags and cut ends)
VHH: QVQLVESGGALVQPGGSLRLSCAASGFPVNRNTMHWFRQAPGKEREGVAGISSRGDWTYYEDSVKGRFTISRDDARNTVYLQMNSLKPEDTAVYYCAALLWHYGGVYWGQGTQVTAGG
notes: also called B04
B5: 抗SARS-CoV-2 RBD VHH抗体 B13 (VHH, not shown: small tags and cut ends)
VHH: QVQLVESGGALVQPGGSLRLSCAASGFPVNHHTMLWFRQAPGKEREGVAGISFRGNWTYYEDSVKGRFTISRDDARNTVYLQMNSLKPEDTAVYYCAAHLWLLGGVYWGQGTQVTVGG
notes: also called B13
B6: 抗SARS-CoV-2 RBD VHH抗体 A03 (VHH, not shown: small tags and cut ends)
VHH: QVQLVESGGALVQPGGSLRLSCAASGFPVNHNAMHWFRQAPGKERESVAGISHVVYRTYYEDSVKGRFTISRDDARNTVYLQMNSLKPEDTAVYYCAAVALTDLRLYWGQGTQVTVGG
notes: also called A03
B7: 抗SARS-CoV-2 RBD VHH抗体 A02 (VHH, not shown: small tags and cut ends)
VHH: QVQLVESGGALVQPGGSLRLSCAASGFPVNRNTMHWFRQAPGKEREGVAGISSRGDWTYYEDSVKGRFTISRDDARNTVYLQMNSLKPEDTAVYYCAAYLWLLGGVYWGQGTQVTVGG
notes: also called A02

The first assay has as its target T1, SARS-CoV-2 RBDタンパク質(Recombinant SARS-CoV-2, S1 Subunit Protein (RBD)、RayBiotech Life, Inc.) (SARS-CoV-2, UniProt P0DTC2 319-541). Nature of the assay: ELISA on coated RBD, legend of Figure 2, n=4.
Turning to B1, the binding result was “binds”.

B2: the binding result was “binds”.

For B3, the binding result is “binds”.

As to B4, the binding result was “binds”.

Take B5: the binding result is given as “binds”.

The target of the next assay is T1, SARS-CoV-2 RBDタンパク質(Recombinant …. Description: ELISA, RBD coated 50 ng/well, VHH 50 ng/well, anti-FLAG detection, A450, n=4. Background: An ELISA detects its analyte on a solid surface through an enzyme-linked reagent.
Regarding B6, the binding result is on record as “binds”.

For B7, the binding result is given as “binds”.

The values are drawn from patent JP2023032631A (dated 2023).
